Test results as given in patent publication US20160058848A1.
Substitutions are numbered along the chain they refer to.

Assays:
[1] = target: T1, human corin variant Q568P, Q9Y5Q5
T1 chain: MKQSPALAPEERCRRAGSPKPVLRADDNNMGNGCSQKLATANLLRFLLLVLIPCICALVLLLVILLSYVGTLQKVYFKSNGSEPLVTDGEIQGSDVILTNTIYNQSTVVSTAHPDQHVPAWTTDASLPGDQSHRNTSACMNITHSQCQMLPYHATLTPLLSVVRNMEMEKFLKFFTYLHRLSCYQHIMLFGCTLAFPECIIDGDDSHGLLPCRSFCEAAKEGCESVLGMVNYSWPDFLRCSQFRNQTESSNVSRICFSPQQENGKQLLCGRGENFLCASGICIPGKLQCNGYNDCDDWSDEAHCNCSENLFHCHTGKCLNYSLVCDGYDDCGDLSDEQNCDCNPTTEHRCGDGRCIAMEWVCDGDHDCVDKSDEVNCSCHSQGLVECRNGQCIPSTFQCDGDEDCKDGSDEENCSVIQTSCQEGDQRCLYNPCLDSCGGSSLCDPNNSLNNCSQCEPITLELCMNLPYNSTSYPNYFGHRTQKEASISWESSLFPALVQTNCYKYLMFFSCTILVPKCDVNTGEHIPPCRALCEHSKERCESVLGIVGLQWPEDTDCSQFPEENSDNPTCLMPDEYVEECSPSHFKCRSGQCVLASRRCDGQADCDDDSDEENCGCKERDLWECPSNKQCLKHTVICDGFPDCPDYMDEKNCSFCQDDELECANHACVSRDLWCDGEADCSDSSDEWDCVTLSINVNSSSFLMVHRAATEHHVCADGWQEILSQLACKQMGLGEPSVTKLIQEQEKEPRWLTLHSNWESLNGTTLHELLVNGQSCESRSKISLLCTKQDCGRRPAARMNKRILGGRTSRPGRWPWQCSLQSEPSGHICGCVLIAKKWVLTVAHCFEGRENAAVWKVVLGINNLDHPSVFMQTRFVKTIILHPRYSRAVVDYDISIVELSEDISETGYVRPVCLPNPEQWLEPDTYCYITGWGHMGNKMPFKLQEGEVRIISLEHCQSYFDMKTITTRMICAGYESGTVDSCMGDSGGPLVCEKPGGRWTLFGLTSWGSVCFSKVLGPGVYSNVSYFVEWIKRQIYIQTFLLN

[2] = target: T2, human corin variant T555I/Q568P, Q9Y5Q5
T2 chain: T1 chain with T555I

[3] = target: T3, human corin mutant R801A, Q9Y5Q5
T3 chain: T1 chain with P568Q, R801A

B1: recombinant human proprotein convertase subtilisin/kexin-6 (PCSK6) with a C-terminal flag tag (protein)
chain: QVRSDPQALYFNDPIWSNMWYLHCGDKNSRCRSEMNVQAAWKRGYTGKNVVVTILDDGIERNHPDLAPNYDSYASYDVNGNDYDPSPRYDASNENKHGTRCAGEVAASANNSYCIVGIAYNAKIGGIRMLDGDVTDVVEAKSLGIRPNYIDIYSASWGPDDDGKTVDGPGRLAKQAFEYGIKKGRQGLGSIFVWASGNGGREGDYCSCDGYTNSIYTISVSSATENGYKPWYLEECASTLATTYSSGAFYERKIVTTDLRQRCTDGHTGTSVSAPMVAGIIALALEANSQLTWRDVQHLLVKTSRPAHLKASDWKVNGAGHKVSHFYGFGLVDAEALVVEAKKWTAVPSQHMCVAASDKRPRSIPLVQVLRTTALTSACAEHSDQRVVYLEHVVVRTSISHPRRGDLQIYLVSPSGTKSQLLAKRLLDLSNEGFTNWEFMTVHCWGEKAEGQWTLEIQDLPSQVRNPEKQGKLKEWSLILYGTAEHPYHTFSAHQSRSRMLELSAPELEPPKAALSPSQVEVPEDEEDYTAQSTPGSANILQTSVCHPECGDKGCDGPNADQCLNCVHFSLGSVKTSRKCVSVCPLGYFGDTAARRCRRCHKGCETCSSRAATQCLSCRRGFYHHQEMNTCVTLCPAGFYADESQKNCLKCHPSCKKCVDEPEKCTVCKEGFSLARGSCIPDCEPGTYFDSELIRCGECHHTCGTCVGPGREECIHCAKNFHFHDWKCVPACGEGFYPEEMPGLPHKVCRRCDENCLSCAGSSRNCSRCKTGFTQLGTSCITNHTCSNADETFCEMVKSNRLCERKLFIQFCCRTCLLAG
[1]
  PCSK6-mediated activation cleavage (Western blot, densitometry): PCSK6-mediated activation cleavage was detected in corin WT and variants T555I or Q568P, but not variant T555I/Q568P
[2]
  PCSK6-mediated activation cleavage (Western blot, densitometry): PCSK6-mediated activation cleavage was detected in corin WT and variants T555I or Q568P, but not variant T555I/Q568P
[3]
  PCSK6-mediated activation cleavage (Western blot, densitometry): In controls, no activation cleavage was detected in mutant R801A lacking the cleavage site
